Measurements published in article PMC10010325.

Columns and labels:
[1] = biological target: human CLDN18.2 (Claudin18.2), P56856-2; assay: not named in legend (MFI read-out, antibody titration on CLDN18.2); settings: value read at the highest antibody concentration, log10(µg/mL) about 1.5; read off a plot
[2] = biological target: Fcγ receptor type IIIA (CD16A), low affinity F158 (UniProt P08637); assay: not named in legend (luminescence read-out, antibody titration on CD16A F158); settings: value read at the highest antibody concentration, log10(µg/mL) about -1; parent: est. 4400; read off a plot
Chain of UniProt P08637 (P08637 17-254): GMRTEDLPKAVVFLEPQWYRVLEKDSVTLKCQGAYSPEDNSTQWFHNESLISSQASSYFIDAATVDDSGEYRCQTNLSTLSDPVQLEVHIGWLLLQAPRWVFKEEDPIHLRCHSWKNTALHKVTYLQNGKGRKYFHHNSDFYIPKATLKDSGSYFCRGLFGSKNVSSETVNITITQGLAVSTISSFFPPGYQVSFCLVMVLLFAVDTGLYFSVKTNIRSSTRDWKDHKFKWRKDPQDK

Substance “ZL-1211 wild-type (WT) Fc Fc mutations for enhanced ADCC (substitutions not printed)” has a response [1] of 35000 MFI and a response [2] of 5000 luminescence.
